Source: patent US20200030378A1

Target: MCPyV KLL epitope presented by HLA-A*02:01 on cells (human; Merkel cell polyomavirus), A*02:0
Assay: cell-based or functional assay

B1: w876 clonotype 13 TCR (TCR)
TCR alpha: CVVTDTSGGGADGLTF
TCR beta: CASSLAGLAGTDTQYF
EC50 (ng/uL DNA), IFN-γ secretion, COS-7 + HLA-A*02:01 + tLTAg plasmid: 3.9 ng/µL DNA

B2: w876 clonotype 8 TCR (TCR)
TCR alpha: CVVYASKIIF
TCR beta: CASSDTPDLNTEAFF
EC50 (ng/uL DNA), IFN-γ secretion, COS-7 + HLA-A*02:01 + tLTAg plasmid: 4.2 ng/µL DNA

B3: w830 clonotype 3 TCR (TCR)
TCR alpha: CAYPSTDKLIF
TCR beta: CASSILGASNQPQHF
EC50 (ng/uL DNA), IFN-γ secretion, COS-7 + HLA-A*02:01 + tLTAg plasmid: 270 ng/µL DNA

B4: w876 clonotype 14 TCR (TCR)
TCR alpha: CVVPSAGKSTF
TCR beta: CASSEFAGQETQYF
EC50 (ng/uL DNA), IFN-γ secretion, COS-7 + HLA-A*02:01 + tLTAg plasmid: 5.4 ng/µL DNA
